Two molecules from patent US20260027152A1 (SANGAMO THERAPEUTICS, published 2026) can be followed below.

The target in assay [1] is T1, mouse IL23Ra (coated on beads) (mouse, UniProt Q8K4B4 24-372, limits assumed).
T1 construct: also called mouse IL-23R alpha subunit
T1 sequence (looked up): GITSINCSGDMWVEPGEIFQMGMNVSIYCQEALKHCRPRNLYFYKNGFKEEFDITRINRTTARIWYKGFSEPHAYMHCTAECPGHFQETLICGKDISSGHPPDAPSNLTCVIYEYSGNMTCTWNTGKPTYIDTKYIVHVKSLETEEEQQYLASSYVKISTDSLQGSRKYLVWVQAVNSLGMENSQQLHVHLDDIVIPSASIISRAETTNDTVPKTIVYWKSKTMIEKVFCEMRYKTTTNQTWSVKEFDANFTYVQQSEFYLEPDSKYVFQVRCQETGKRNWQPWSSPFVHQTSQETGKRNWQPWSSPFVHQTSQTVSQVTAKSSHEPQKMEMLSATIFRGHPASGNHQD
As to the kind of experiment: ratio of the EC50 values on mouse and human IL23Ra-coated beads (flow cytometry). Here is the method: (§1) The indicated scFVs were produced in mammalian 293tcells, purified and biotinylated. Biotinylated scFvs were then incubated at 25° C. with mouse or human IL23Ra-coated beads for 30 min in PBS. After cold washing, bound IL23R bound scFV was detected by incubation with APC-labelled Streptavidin and analysis of the samples on a Flow-cytometer. An EC50 was calculated based on the median fluorescence intensity from each condition. Calculation, curve fitting and EC50 calculation was performed via Graphpad Prism.
On the technique in general: Flow cytometry measures light scatter and fluorescence of single cells or particles in a stream.

Assay [2] deals with T2, human IL23Ra (coated on beads) (human, UniProt Q5VWK5 24-353, limits assumed).
T2 construct: also called human IL-23R alpha subunit
T2 sequence (looked up): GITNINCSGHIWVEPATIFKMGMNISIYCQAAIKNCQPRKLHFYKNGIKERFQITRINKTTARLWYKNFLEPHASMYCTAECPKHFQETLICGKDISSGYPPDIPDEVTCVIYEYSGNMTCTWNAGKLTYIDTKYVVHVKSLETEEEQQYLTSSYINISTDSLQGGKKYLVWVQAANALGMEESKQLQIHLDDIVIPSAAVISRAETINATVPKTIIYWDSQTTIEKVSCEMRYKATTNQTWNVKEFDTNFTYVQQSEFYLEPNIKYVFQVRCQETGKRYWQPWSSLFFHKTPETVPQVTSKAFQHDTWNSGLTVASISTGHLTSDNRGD
The assay can be described thus: flow cytometry; biotinylated scFv on human IL23Ra-coated beads, detected with APC-streptavidin, EC50 from median fluorescence intensity. Here is the method: as §1

Assay [3] deals with T1, mouse IL23Ra (coated on beads). The assay can be described thus: flow cytometry; biotinylated scFv on mouse IL23Ra-coated beads, detected with APC-streptavidin, EC50 from median fluorescence intensity. Here is the method: as §1
Assay [4] deals with IL-23R (coated on beads, Example 1). The assay can be described thus: cell-based or functional assay.
Chain of IL-23R (coated on beads, Example 1) (Q5VWK5 whole entry): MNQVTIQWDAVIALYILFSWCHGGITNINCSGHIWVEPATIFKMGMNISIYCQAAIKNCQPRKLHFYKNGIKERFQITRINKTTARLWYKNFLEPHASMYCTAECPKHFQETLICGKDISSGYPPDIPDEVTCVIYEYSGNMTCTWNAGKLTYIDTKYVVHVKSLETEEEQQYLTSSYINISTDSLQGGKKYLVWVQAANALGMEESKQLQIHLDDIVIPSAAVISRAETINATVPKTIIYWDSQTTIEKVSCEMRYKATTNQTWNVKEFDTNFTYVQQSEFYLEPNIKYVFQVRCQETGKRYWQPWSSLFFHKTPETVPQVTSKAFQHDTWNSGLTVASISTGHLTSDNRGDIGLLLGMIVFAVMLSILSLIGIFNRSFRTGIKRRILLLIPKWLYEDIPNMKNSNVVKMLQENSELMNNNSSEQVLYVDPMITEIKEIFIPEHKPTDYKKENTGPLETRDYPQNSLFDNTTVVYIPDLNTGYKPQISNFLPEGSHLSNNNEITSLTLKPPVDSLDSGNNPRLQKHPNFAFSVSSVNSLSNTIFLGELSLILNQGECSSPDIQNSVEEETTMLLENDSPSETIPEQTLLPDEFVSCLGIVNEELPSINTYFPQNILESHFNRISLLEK

B1: anti-IL-23R scFv IL23RLamS4-G3 (scFv)
scFv: QSVLTQPPSVSGAPGQRVTISCTGSSSNIGAGYDVHWYQQLPGTAPKLLIYGNNNRPSGVPDRFSGSKSGTSASLAITGLQAEDEADYYCQSYDTGLSAWVFGGGTKLTVLGGGGSGGGGSGGGGSQLQLQESGPGLVKPSETLSLTCTVSGGSITSSNYYWGWIRQPPGKGLEWIGSIYYSGNTYYNPSLKSRVTISVDTSKNQFSLKLSSVTAADTAVYYCAREWSPYESEGFDYWGQGTLVTVSS
modifications: biotinylated (sites not given)
notes: also called hmIL23R LamS4-G3; scFv of the present disclosure
Take B1: the “fold difference in binding affinity between human IL23R and mouse IL23R” value in assay [1] is approximately 1.4 fold. In addition, the EC50 in assay [2] stood at 37.6 nM; in assay [3] it was 53.1 nM.

B2: CAR #2 (anti-IL-23R chimeric antigen receptor with scFv IL23RLamS4-G3, CD8 hinge, CD8 TM, CD28, CD3 zeta) (other)
chain: SYPYDVPDYASQSVLTQPPSVSGAPGQRVTISCTGSSSNIGAGYDVHWYQQLPGTAPKLLIYGNNNRPSGVPDRFSGSKSGTSASLAITGLQAEDEADYYCQSYDTGLSAWVFGGGTKLTVLGGGGSGGGGSGGGGSQLQLQESGPGLVKPSETLSLTCTVSGGSITSSNYYWGWIRQPPGKGLEWIGSIYYSGNTYYNPSLKSRVTISVDTSKNQFSLKLSSVTAADTAVYYCAREWSPYESEGFDYWGQGTLVTVSSTTTPAPRPPTPAPTIASQPLSLRPEACRPAAGGAVHTRGLDFACDIYIWAPLAGTCGVLLLSLVITLYCRSKRSRLLHSDYMNMTPRRPGPTRKHYQPYAPPRDFAAYRSRVKFSRSADAPAYQQGQNQLYNELNLGRREEYDVLDKRRGRDPEMGGKPRRKNPQEGLYNELQKDKMAEAYSEIGMKGERRRGKGHDGLYQGLSTATKDTYDALHMQALPPR
On to B2, for which the “CD69+ cells (CAR-Treg activation) after 24 h with IL-23R coated beads, fold increase” value in assay [4] came to 3.6 fold.

The term EC50 denotes the midpoint of the concentration-response curve. A lower EC50 goes with an effect from little substance.
